What was measured:
[1] = molecular target: human mutant CSF-1R L301S Y969F (human) (UniProt P07333); assay: cell-based or functional assay
[2] = molecular target: human wildtype CSF-1R (wt CSF-1R) (human, UniProt P07333 20-972); assay: cell-based or functional assay
MEC1 cells = assay: CLL xeno-transplantation system: MEC1 cells i.v. in Rag2−/−γc−/− mice; format: in vivo
Procedure: FIG. 4 Anti-leukemic effect of anti-CSF1R moAb in the CLL xeno-transplantation system. • (A-B-C-D-E) i.v. MEC1 challenged (day 0) Rag2^−/−γc^−/− mice were treated i.v. (day +11, +25) with 30 mg/Kg of anti-CSF1R moAb (n=3, white circles) or left untreated (n=4, black circles) and killed at day 27 (A). The mean value of the absolute number of CD11b+ F4/80+ cells gated on CD45+ in SP (B) and BM (C) is shown in graphs. The mean value of the absolute number of human CD19+ cells in the BM is shown in graph (D). The mean value of the absolute number of human CD19+ cells and of Ann-PI+ cells gated on hCD19+ cells in SP is shown in graphs (E). Data are from one representative experiment of three. Statistical analysis: *p<0.05, **p<0.01, Student's t test. (F-G-H-I) i.v. MEC1 challenged (day 0) Rag2^−/−γc^−/− mice were treated i.v. (day +11, +25) with 30 mg/Kg of anti-CSF1R moAb) (n=7, white circles) or left untreated (n=7, black circles) and killed at days 27 and 29, 48 h and 96 h after the last moAb injection (F). The mean value of the absolute number of human CD19+ cells and of Ann-PI+ cells gated on hCD19+ cells in SP at days 27, 29 is shown in graphs (G). […]
FIG. 5 Anti-leukemic effect and survival impact of anti-CSF1R moAb in the CLL xeno-transplantation system. • (A-B-C) i.v. MEC1 challenged (day 0) Rag2^−/−γc^−/− mice were treated i.v. (day +11, +25) with 30 mg/Kg of anti-CSF1R moAb (n=3, white circles) or left untreated (n=4, black circles) and killed at day 27 (A). […] Statistically significant differences were calculated using the Student t test. **p<0.01, ***p<0.001. (D-E) i.v. MEC1 challenged (day 0) Rag2^−/−γc^−/− mice were left untreated (n=10, black circles) or treated with: 30 mg/Kg i.v. of anti-CSF1R moAb (n=11, white circles; day +11, +25); or 30 mg/Kg i.p. of anti-CD20 moAb GA101 (n=10, blue circles; day +11, +25); or 30 mg/Kg i.p. of anti-CD20 moAb GA101 (day +11, +25)+30 mg/Kg i.v. of anti-CSF1R moAb (day +18, +32) (n=10, violet circles) and monitored for survival (D). […]

PBMCs from CLL patients = assay: In vitro cultures and cell-depletion assays from CLL samples (PBMCs); format: cell-based, human; settings: etanercept 10 μg/ml, 24 h; 3 out of 4 samples
Procedure: Statistically significant differences were calculated using the Student t test. *p<0.05 • (C) hCD19+ CDS+ depletion after 24 h treatment (n=3) with 100 μM, 500 μM, 1000 μM of clodrolip, with (black bar) or without (white bar) etanercept (10 n/ml) was calculated by the following formula: 100−% remaining cells, where % remaining cells=(Absolute number in treated samples/Absolute number in untreated samples)×100. (*p<0.05), Student's t test. • (D) hCD19+ CDS+ depletion after 24 h treatment (n=3) with clodrolip 1000 μM, with (black bar) or without (white bar) blocking anti-TRAIL-R2 moAb (1 μg/ml) was calculated by the following formula: 100−% remaining cells, where % remaining cells=(Absolute number in treated samples/Absolute number in untreated samples)×100.
Fresh PBMCs from untreated CLL patients were seeded, as triplicates, at 3×10^6 cells/ml in culture medium and treated with clodrolip or PBS liposomes (100, 500, 1000 μM) for 30 min and 24 h, in presence or absence of etanercept (10 μg/ml), a TNF-α antagonist from Pfizer or anti-TRAIL-R2 (human, 1 μg/ml) moAb (HS201) from Adipogen AG. […] The specific percentage of remaining leukemic CD19+CD5+ or CD14+ cells in treated samples was calculated as (absolute number in treated samples/absolute number in control samples)×100. […]

goat polyclonal anti-CSF-1R antibody ab10676 (abcam)
Mutant CSF-1R IC30 (30 percent inhibition of cell viability, CellTiterGlo, 3D spheroid culture) [1]: > 20 µg/mL | Mutant CSF-1R: inhibition of cell viability at 20 µg/ml [1]: 0% | wtCSF-1R IC30 (30 percent inhibition of cell viability, CellTiterGlo, 3D spheroid culture) [2]: 14.2 µg/mL

GA101: glycoengineered humanized B-Ly1 antibody BHH6-B-KV1 GE, type II anti-human CD20
survival of mice, p vs untreated control (Log-Rank test) (MEC1 cells; 30 mg/Kg each, single agents days +11, +25, combination GA101 days +11, +25 + anti-CSF1R days +18, +32): 0.006

etanercept
effect on anti-leukemic effect of CSF1R moAb in the SP (MEC1 cells; etanercept 10 mg/Kg i.p. from day +10, CSF1R moAb 30 mg/Kg i.v. days +11, +25, day 29): abrogated | effect on clodrolip-induced leukemic cell depletion in the BM (MEC1 cells; etanercept 10 mg/Kg i.p. from day +10, clodrolip 60 μl i.v. days +11, +25, day 26): abated | effect on leukemic cell depletion induced by clodrolip (TNF blocked) (PBMCs from CLL patients): reduced

Anti CSF-1R SC 2-4A5 (Santa Cruz Biotechnology, US) (antibody)
Mutant CSF-1R IC30 (30 percent inhibition of cell viability, CellTiterGlo, 3D spheroid culture) [1]: 2.56 µg/mL | wtCSF-1R IC30 (30 percent inhibition of cell viability, CellTiterGlo, 3D spheroid culture) [2]: 16.6 µg/mL

Source: patent US20180222985A1, “ANTIBODIES AGAINST HUMAN CSF-1R FOR USE IN INDUCING LYMPHOCYTOSIS IN LYMPHOMAS OR LEUKEMIAS” (Hoffmann-La Roche Inc., priority 2015, published 2018)
